Source: the Immune Epitope Database (IEDB)
pIC50, pKd: −log10 of the molar value.

Legend:
HLA-B*08:01 = assay: IEDB peptide-MHC binding, purified MHC/competitive/radioactivity; filed as Kd, often an IC50 or EC50 that approximates it; ≥ and ≤ were set here for values at or beyond the usual limits of such assays
HLA-A*02:02 = assay: as above
HLA-A*02:06 = assay: as above
HLA-A*02:03 = assay: as above
HLA-A*01:01 [1] = assay: as above
HLA-A*02:01 [2] = assay: IEDB peptide-MHC binding, purified MHC/competitive/fluorescence; ≥ and ≤ were set here for values at or beyond the usual limits of such assays
HLA-A*30:01 = assay: IEDB peptide-MHC binding, purified MHC/competitive/radioactivity; filed as Kd, often an IC50 or EC50 that approximates it; ≥ and ≤ were set here for values at or beyond the usual limits of such assays; conditions: source organism: Vaccinia virus WR
HLA-A*23:01 = assay: as above
HLA-A*30:02 = assay: as above
HLA-A*02:01 [3] = assay: IEDB peptide-MHC binding, purified MHC/direct/fluorescence; filed as Kd, often an IC50 or EC50 that approximates it; ≥ and ≤ were set here for values at or beyond the usual limits of such assays
HLA-A*24:02 = assay: IEDB peptide-MHC binding, purified MHC/competitive/radioactivity; filed as Kd, often an IC50 or EC50 that approximates it; ≥ and ≤ were set here for values at or beyond the usual limits of such assays; conditions: source organism: Dengue virus 3 Martinique/1243/1999
HLA-A*01:01 [4] = assay: IEDB peptide-MHC binding, purified MHC/direct/fluorescence; filed as Kd, often an IC50 or EC50 that approximates it; ≥ and ≤ were set here for values at or beyond the usual limits of such assays; conditions: source organism: Human immunodeficiency virus 1
HLA-A*69:01 = assay: as above; conditions: source organism: Salmonella enterica
HLA-A*26:01 = assay: IEDB peptide-MHC binding, purified MHC/competitive/radioactivity; filed as Kd, often an IC50 or EC50 that approximates it; ≥ and ≤ were set here for values at or beyond the usual limits of such assays
[5] = source organism: Vaccinia virus WR
[6] = source organism: Dengue virus 2 Jamaica/1409/1983
[7] = source organism: Dengue virus 3 Martinique/1243/1999
[8] = source organism: Mammarenavirus machupoense
[9] = source organism: Sudan ebolavirus
[10] = source organism: Mammarenavirus guanaritoense
[11] = source organism: Lymphocytic choriomeningitis virus (strain Armstrong)
[12] = source organism: Dengue virus 1 Brazil/97-11/1997
[13] = source organism: Dengue virus 4 Philippines/H241/1956

## FIRLKLTKL
HLA-B*08:01; [5]
  pKd: 6.87

## IIYSKAGNI
HLA-A*02:02; [5]
  pKd: 5.01
HLA-A*02:06; [5]
  pKd: 4.86
HLA-A*02:03; [5]
  pKd: 7.90

## QIDNFSLGV
HLA-A*01:01 [1]; [6]
  pKd: 6.18

## KNISGQSPA
HLA-A*02:01 [2]; source organism: Zaire ebolavirus
  pIC50: ≤ 3.64

## HFQRALIFIL
HLA-B*08:01; [6]
  pKd: 5.76

## LAEAIFKLTY
HLA-A*01:01 [1]; [6]
  pKd: 5.82

## VMKIGIGVLL
HLA-B*08:01; [7]
  pKd: 6.29

## GLSQFTHTV
HLA-A*02:02; [8]
  pKd: 8.28
HLA-A*02:06; [8]
  pKd: 6.48
HLA-A*02:03; [8]
  pKd: 8.12

## EVERLMELPV
HLA-A*02:02; [5]
  pKd: 5.61
HLA-A*02:06; [5]
  pKd: 5.44
HLA-A*02:03; [5]
  pKd: 5.84

## TISWMMKLGI
HLA-A*02:02; [5]
  pKd: 5.11
HLA-A*02:06; [5]
  pKd: 5.56
HLA-A*02:03; [5]
  pKd: 6.01

## NQNALVCGL
HLA-A*02:01 [2]; [9]
  pIC50: ≤ 3.91

## HLKHHKQCV
HLA-B*08:01; [5]
  pKd: 8.35

## RTYSSSIIA
HLA-A*30:01
  pKd: 7.30

## DINVIGLIVI
HLA-A*02:02; [5]
  pKd: 5.15
HLA-A*02:06; [5]
  pKd: 5.55
HLA-A*02:03; [5]
  pKd: 5.55

## IIMAINVFT
HLA-A*02:02; [5]
  pKd: 7.41
HLA-A*02:06; [5]
  pKd: 7.99
HLA-A*02:03; [5]
  pKd: 6.74

## DMLLNVQTLI
HLA-A*02:02; [5]
  pKd: 7.38
HLA-A*02:06; [5]
  pKd: 6.54
HLA-A*02:03; [5]
  pKd: 6.79

## SMSQELAEL
HLA-A*02:02; [5]
  pKd: 8.40
HLA-A*02:06; [5]
  pKd: 6.73
HLA-A*02:03; [5]
  pKd: 8.12

## IMECSRMLDT
HLA-A*02:02; [5]
  pKd: 5.28
HLA-A*02:06; [5]
  pKd: ≤ 4.16
HLA-A*02:03; [5]
  pKd: 5.14

## VLVHPQWVL
HLA-A*02:01 [2]; source organism: Homo sapiens
  pIC50: 5.68

## TAQEQHNAA
HLA-A*02:01 [2]; [9]
  pIC50: 4.56

## TLVDLCFWS
HLA-A*02:02; [10]
  pKd: 7.24
HLA-A*02:06; [10]
  pKd: 6.87
HLA-A*02:03; [10]
  pKd: 6.28

## MFLITENKI
HLA-A*23:01; source organism: Dengue virus 1 Nauru/West Pac/1974
  pKd: 6.79

## LLEQLIENI
HLA-A*02:02; [5]
  pKd: 6.15
HLA-A*02:06; [5]
  pKd: 6.27
HLA-A*02:03; [5]
  pKd: 5.71

## AVSVYGAIT
HLA-A*02:02; [5]
  pKd: 4.94
HLA-A*02:06; [5]
  pKd: 4.84
HLA-A*02:03; [5]
  pKd: 5.02

## LNVSYLCHL
HLA-A*02:02; [11]
  pKd: 6.53
HLA-A*02:06; [11]
  pKd: 4.87
HLA-A*02:03; [11]
  pKd: 5.15

## ETLPELNLSL
HLA-A*02:02; [5]
  pKd: 7.28
HLA-A*02:06; [5]
  pKd: 6.87
HLA-A*02:03; [5]
  pKd: 6.89

## GTVLVQVKY
HLA-A*01:01 [1]; [12]
  pKd: 5.91
HLA-A*30:02; [12]
  pKd: 5.29

## GVFEGIAVL
HLA-A*02:01 [3]; source organism: Mycobacterium tuberculosis variant bovis
  pKd: 7.81

## RYLEFEALGF
HLA-A*24:02
  pKd: 7.42
HLA-A*23:01; [7]
  pKd: 8.33

## RRFRRPMSL
HLA-B*08:01; [5]
  pKd: 6.95

## NPDIVIYQY
HLA-A*01:01 [4]
  pKd: ≤ 4.68

## AIKRRLRTL
HLA-B*08:01; [7]
  pKd: 8.01

## AIDPRRIVA
HLA-A*69:01
  pKd: ≤ 4.70
HLA-A*02:01 [3]; source organism: Salmonella enterica
  pKd: ≤ 4.70

## TVGMLIYSM
HLA-A*02:02; [5]
  pKd: 6.31
HLA-A*02:06; [5]
  pKd: 5.04
HLA-A*02:03; [5]
  pKd: 5.22

## TLNTLITLIL
HLA-A*02:02; [5]
  pKd: 6.82
HLA-A*02:06; [5]
  pKd: 6.08
HLA-A*02:03; [5]
  pKd: 8.15

## RVLYDEFVT
HLA-A*02:02; [5]
  pKd: 5.66
HLA-A*02:06; [5]
  pKd: 5.76
HLA-A*02:03; [5]
  pKd: 5.85

## DLTALLSCI
HLA-A*02:02; [5]
  pKd: 5.28
HLA-A*02:06; [5]
  pKd: 5.31
HLA-A*02:03; [5]
  pKd: 6.00

## ASVKKDLISY
HLA-A*01:01 [1]; [12]
  pKd: ≤ 4.42
HLA-A*30:02; [12]
  pKd: 7.71

## LLKATLLAV
HLA-B*08:01; [12]
  pKd: 7.90
HLA-A*02:03; [12]
  pKd: 10.52

## AISAVYFKA
HLA-A*02:02; [5]
  pKd: 8.44
HLA-A*02:06; [5]
  pKd: 6.83
HLA-A*02:03; [5]
  pKd: 6.28

## ENPYKTWAY
HLA-A*26:01; [7]
  pKd: 5.53

## SAKYINSSI
HLA-B*08:01; [5]
  pKd: 6.86

## GIQRTVFFVL
HLA-B*08:01; [13]
  pKd: 5.18

## VLEKKVCAI
HLA-A*02:02; [5]
  pKd: 4.84
HLA-A*02:06; [5]
  pKd: 5.47
HLA-A*02:03; [5]
  pKd: 5.64

## GLLKKFEFL
HLA-B*08:01; [5]
  pKd: 7.33

## RTPQDNQLTY
HLA-A*30:02; [6]
  pKd: 8.99

## VTKSSSWKDV
HLA-A*02:02; [5]
  pKd: ≤ 4.15
HLA-A*02:06; [5]
  pKd: ≤ 4.16
HLA-A*02:03; [5]
  pKd: ≤ 4.38

## SVKYYGRST
HLA-A*02:02; [5]
  pKd: 5.17
HLA-A*02:06; [5]
  pKd: 4.71
HLA-A*02:03; [5]
  pKd: 5.94

## YKKLKFRFI
HLA-B*08:01; [5]
  pKd: 6.71

## NTTTFITVLT
HLA-A*02:02; [5]
  pKd: 5.71
HLA-A*02:06; [5]
  pKd: 6.22
HLA-A*02:03; [5]
  pKd: 6.22

## ELEPPFGDSY
HLA-A*01:01 [1]; [13]
  pKd: 6.93
HLA-A*26:01; [13]
  pKd: 5.88

## TLGRNKRPRL
HLA-B*08:01; source organism: Dengue virus 3 Sri Lanka/1266/2000
  pKd: 6.40
